Measurements taken from patent publication US6833192B1, “Encapsulation of crystals via multilayer coatings” (Max-Planck Gesellschaft Zur Forderrung der Wissenschaften …, priority 1999, dated 2004).

Key:
[1] = Electrophoretic mobility / Zeta-potential measurement; format: physicochemical; details: water at pH 5; by electrophoretic mobility
Protocol: Electrophoretic mobilities of the uncoated and polymer-multilayer coated enzyme crystals were measured using a Malvern Zetasizer 4 as described elsewhere (Caruso et al., J. Phys. Chem. B 102, 2011-2116 (1998); Sukhorukov, G. B. et al., Polym. Adv. Technol. 9, 759-767 (1998); Donath et al., Angew. Chem. Int. Ed. 37, 2201-2205 (1998). The mobility u was converted into a ξ-potential using the Smoluchowski relation ξ=uη/ε, where η and ε are the viscosity and permittivity of the solution, respectively. Atomic force microscopy (AFM) images were obtained using a Digital Instruments Nanoscope IIIa AFM in tapping mode (TM) on samples deposited onto cleaned glass slides and air-dried. Samples for transmission electron microscopy (TEM) were prepared by deposition of aqueous solutions of the hollow polymer capsules upon a carbon-coated copper grid, allowing them to air dry for one minute, and then blotting off the extra solution.

[2] = Determination of catalase activity (decomposition of H2O2 at 240 nm); format: biochemical; details: after solubilization and release from the polymer capsules; uncoated catalase measured the same way for comparison
Protocol: The enzyme was released from the polymer capsules by exposure to ultrasound for 5 min at 20° C. in 1 M phosphate buffer at pH 7 (this caused rupturing of the polymer walls). The catalase activity was determined using a standard enzyme activity assay (Biochemica Information, 15-16 Boehringer Mannheim (1987); Tijsen, Practice and Theory of Enzyme Immunoassays, 8th Impression (1993), Elsevier, 202-203): that is, by measuring the decomposition of the substrate hydrogen peroxide (H2O2) at 240 nm. The concentration of the catalase was determined spectrophotometrically at 280 nm and 405 nm (soret band). The specific acitvity of the uncoated catalase was measured in the same way and used for comparison.

[3] = system: protease (Streptomyces griseus); test: Proteolysis experiment (decrease in catalase enzyme activity on protease incubation); format: biochemical; details: incubation time of 100 min, 37° C., pH 7; starting activity normalized to 100%
Protocol: 10 mg of protease (Streptomyces griseus; Sigma P6911; activity=5.2 U/mg solid) was dissolved in 500 μl of phosphate buffered saline (PBS, pH 7.0)(100 U/ml) and used as the stock solution. 200 μl samples of the polyelectrolyte-coated catalase and solubilized catalase where separately incubated in a water bath at 37° C. with either 30 μl of the stock protease solution of 30 μl of PBS (control experiment). The starting activity of the catalase for all samples was approximately 12000 U/ml catalase. The starting activities were normalized to 100%. The final protease activity in the sample was […]. Proteolysis of the catalase was determined by measuring the decrease in the catalase enzyme activity. The catalase activity measurements where carried out according to the previously described method (i.e. by spectrophotometric detection (240 nm) of the decomposition of hydrogen peroxide, see Tijsen, Practice and Theory of Enzyme Immunoassays, Elsevier, 8th Impression (1993), pp. 202-203.15). 5 μl samples were diluted and used for the activity measurements.

B1: catalase (protein, UniProt P00432 2-527, looked up)
Catalase: ADNRDPASDQMKHWKEQRAAQKPDVLTTGGGNPVGDKLNSLTVGPRGPLLVQDVVFTDEMAHFDRERIPERVVHAKGAGAFGYFEVTHDITRYSKAKVFEHIGKRTPIAVRFSTVAGESGSADTVRDPRGFAVKFYTEDGNWDLVGNNTPIFFIRDALLFPSFIHSQKRNPQTHLKDPDMVWDFWSLRPESLHQVSFLFSDRGIPDGHRHMNGYGSHTFKLVNANGEAVYCKFHYKTDQGIKNLSVEDAARLAHEDPDYGLRDLFNAIATGNYPSWTLYIQVMTFSEAEIFPFNPFDLTKVWPHGDYPLIPVGKLVLNRNPVNYFAEVEQLAFDPSNMPPGIEPSPDKMLQGRLFAYPDTHRHRLGPNYLQIPVNCPYRARVANYQRDGPMCMMDNQGGAPNYYPNSFSAPEHQPSALEHRTHFSGDVQRFNSANDDNVTQVRTFYLKVLNEEQRKRLCENIAGHLKDAQLFIQKKAVKNFSDVHPEYGSRIQALLDKYNEEKPKNAVHTYVQHGSHLSAREKANL
modifications: crystals
notes: catalase enzyme crystals (Sigma, C-100), uncoated template and comparison
Zeta potential (surface charge) [1]: +20 mV | recovered specific activity [2]: 100% | inactivation by protease [3]: > 90%
